From publication PMC4552821
Where two headings read alike, the source gives them in different places.

What was measured:
[1] = biological target: Bone morphogenetic protein 2 (rhBMP-2) (UniProt P12643); assay: SPR (Reichert SR 7000 refractometer); details: pH 7.4; 20°C; 154 mM NaCl plus 6.7 mM phosphates (PBS); HyClone PBS (154 mM NaCl, 1.06 mM KH2PO4, 5.6 mM Na2HPO4) at pH 7.4. The pH 4.5 solvent is the same PBS acidified with d
[2] = biological target: Kerateine (KTN) extract, in solution (analyte); assay: SPR (Reichert SR 7000 refractometer); details: 20°C, no added salt, unbuffered
[3] = biological target: kerateine (reduced hair keratin extract) (Homo sapiens) (UniProt Q15323); assay: SPR
[4] = biological target: kerateine (reduced hair keratin extract) (Homo sapiens) (UniProt Q15323); assay: SPR; remark: listed apart in the source
[5] = pH 7, deionized water, water (pH 7)
[6] = pH 12, 10 mM NaOH, 10 mM NaOH (pH 12)

Bone morphogenetic protein 2 (rhBMP-2), sequence (P12643 whole entry): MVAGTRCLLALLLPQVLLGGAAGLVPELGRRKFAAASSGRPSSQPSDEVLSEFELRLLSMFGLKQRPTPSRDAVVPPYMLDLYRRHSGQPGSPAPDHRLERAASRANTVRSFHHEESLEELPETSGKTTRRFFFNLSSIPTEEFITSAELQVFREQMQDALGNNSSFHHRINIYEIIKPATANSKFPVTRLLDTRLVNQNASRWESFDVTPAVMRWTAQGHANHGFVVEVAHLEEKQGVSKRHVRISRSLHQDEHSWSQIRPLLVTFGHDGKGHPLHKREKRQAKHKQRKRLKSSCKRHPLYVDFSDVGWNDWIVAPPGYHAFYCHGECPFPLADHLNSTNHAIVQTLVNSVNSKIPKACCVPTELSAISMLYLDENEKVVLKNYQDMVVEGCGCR

Row | Substance | KD [1] [µM] | t1/2 (half-life of the complex) [1] [min] | ΔG (dissociation energy) [1] [kcal/mol] | KD [2, 5] [µM] | t1/2 (half-life of the complex) [2, 5] [min] | ΔG (dissociation energy) [2, 5] [kcal/mol] | KD [2, 6] [µM] | t1/2 (half-life of the complex) [2, 6] [min] | ΔG (dissociation energy) [2, 6] [kcal/mol] | Kd [3] [µM] | Kd [4] [µM]
1 | Kerateine (KTN) extract, chemisorbed monolayer on gold | 32 | 3.73 | 6.0 | 180 | 1.28 | 5.0 | 100 | 1.77 | 5.4 |  | 
2 | kerateine (reduced hair keratin extract), Q15323 |  |  |  |  |  |  |  |  |  | 180 | 100
